Key:
[1] = target: YFP-tagged wild-type HIV-1 protease subunit (PRWT^YFP) (HIV-1 (HIV-1NL4-3)) (UniProt P12497); test: FRET, acceptor photobleaching, co-transfected Cos-7 cells
[2] = target: YFP-tagged wild-type HIV-1 protease subunit (PRWT^YFP) (HIV-1 (HIV-1NL4-3)) (UniProt P12497); test: FRET, acceptor photobleaching, co-transfected Cos-7 cells (n=23)
[3] = target: YFP-tagged wild-type HIV-1 protease subunit (PRWT^YFP) (HIV-1 (HIV-1NL4-3)) (UniProt P12497); test: FRET, acceptor photobleaching, co-transfected Cos-7 cells, no-drug control of FIG. 2D
[4] = target: YFP-tagged wild-type HIV-1 protease subunit (PRWT^YFP) (HIV-1 (HIV-1NL4-3)) (UniProt P12497); test: FRET, acceptor photobleaching, co-transfected Cos-7 cells, no-drug control of FIG. 2F
[5] = target: HIV-PRD29A^YFP (HIV-1 (HIV-1NL4-3)) (UniProt P12497); test: FRET-HIV-1 assay, co-transfected Cos-7 cells
[6] = target: HIV-PRD29N^YFP (HIV-1 (HIV-1NL4-3)) (UniProt P12497); test: FRET-HIV-1 assay, co-transfected Cos-7 cells
[7] = target: HIV-PRR87K^YFP (HIV-1 (HIV-1NL4-3)) (UniProt P12497); test: FRET-HIV-1 assay, co-transfected Cos-7 cells
[8] = target: HIV-PRT26A^YFP (HIV-1 (HIV-1NL4-3)) (UniProt P12497); test: FRET-HIV-1 assay, co-transfected Cos-7 cells

“CFP-tagged wild-type HIV-1 protease subunit (PRWT^CFP) (from UniProt P12497) (enzyme)” was tested, and the CFP^A/B ratio [1] was 1.38, the YFP^A/B ratio [1] was 0.17 and the ratio of CFP fluorescence after photobleaching to CFP fluorescence prior to photobleaching [1] was 1.19. The CFP^A/B ratio [2] was 1.24, the YFP^A/B ratio [2] was 0.47 and the ratio of ECFP fluorescence after photobleaching to before photobleaching [3] was 1.27. The FRET ratio [4] was 1.29.
“HIV-PRD29A^CFP (from UniProt P12497) (enzyme)” was tested, and the average CFP A/B ratio [5] was under 1.
For “HIV-PRD29N^CFP (from UniProt P12497) (enzyme)”, the average CFP A/B ratio [6] was under 1.
“HIV-PRR87K^CFP (from UniProt P12497) (enzyme)” was tested, and the average CFP A/B ratio [7] was under 1.
For “HIV-PRT26A^CFP (from UniProt P12497) (enzyme)”, the average CFP A/B ratio [8] was under 1.

Reference: patent US20100113582A1
